Laboratory results as given in publication PMC5875921.

What was measured:
[1] = tested on: NmeCas9 (Neisseria meningitidis); experiment: fluorescence polarization; details: not given in the material (Methods absent)
[2] = target: HNH domain of NmeCas9 (Neisseria meningitidis) (UniProt C9X1G5); experiment: ITC

Kd [2] [µM]	Substance	Kd [1] [µM]
–	NmeCas9 sgRNA + target DNA	0.071
0.0063	AcrIIC1 from Neisseria meningitidis (natural protein)	–
